Source: paper PMC4184034

System: dCas9 (SpyCas9 D10A/H840A) (Streptococcus pyogenes)
Experiment: DNA binding assay
Conditions: not given in the material (Methods are in the supplement, not held)

## crRNA:tracrRNA + 55-bp target dsDNA
  Kd: 4 nM
